From patent publication US20230287125A1 (LEPU BIOPHARMA, published 2023)

Columns and labels:
human PD-L1-Fc protein [1] = target: T1, human PD-L1-Fc protein (human, UniProt Q9NZQ7 19-238); assay: receptor blocking ELISA: coated human PD-L1-Fc, blocked ligand biotin-labeled human PD-1-Fc (Bio-PD1), OD 450nm; middle left panel
T1 construct: coating antigen of the ELISAs; also called rhPD-L1-Fc; not shown: Fc
Method: (§1) Briefly, microtiter plates were coated with human PD-L1-Fc protein at 0.5 μg/ml in PBS, 100 μl/well at 4° C. overnight, then blocked with 150 μl/well of 1% BSA at 37° C. for 2 hours. […] The plates were washed with PBS/Tween and then incubated with Streptavidin-HRP for 10 mins at 37° C. After washing, the plates were developed with TMB substrate and analyzed by spectrophotometer at OD 450 nm.

[2] = target: T2, human PD-L1-his tag protein (human, UniProt Q9NZQ7 19-238); assay: SPR (Biacore T200), mAb captured on Protein A chip, PD-L1-his injected
T2 construct: also called human PD-L1-His protein; recombinant PD-L1 protein; not shown: his tag
Method: The binding of the humanized antibodies to recombinant PD-L1 protein (human PD-L1-his tag) was tested by Biacore using a capture method. […] A serial dilution of human PD-L1-his tag protein was injected over captured antibody for 2 mins at a flow rate of 30 μl/min. The antigen was allowed to dissociate for 1500 s. All the experiment were carried out on a Biacore T200.

[3] = target: T3, human PD-L1 over-expressed on CHOK1 cells (human, UniProt Q9NZQ7 19-290); assay: flow cytometry (MFI) on PDL1-CHOK1 cells; upper right panel
T3 construct: whole, on cells; also called PDL1-CHOK1 cells

[4] = target: T2, human PD-L1-his tag protein; assay: SPR (Biacore), affinity ranking, PDL1-His
human PD-L1-Fc protein [5] = target: T1, human PD-L1-Fc protein; assay: ELISA, antibody titrated on coated human PD-L1-Fc, OD 450nm; upper left panel
human PD-L1-Fc protein [6] = target: T1, human PD-L1-Fc protein; assay: receptor blocking ELISA: coated human PD-L1-Fc, blocked ligand biotin-labeled human CD80-Fc (Bio-CD80), OD 450nm; middle left panel
Method: as §1

human PD-L1-Fc protein [7] = target: T1, human PD-L1-Fc protein; assay: ELISA, antibody titrated on coated human PD-L1-Fc, OD 450nm; lower left panel (with Hu47C6A3-3)
Method: (§2) To evaluate antigen binding activity, the humanized antibodies were subjected to ELISA test. Briefly, microtiter plates were coated with human PD-L1-Fc protein at 0.5 μg/ml in PBS, 100 μl/well at 4° C. overnight, then blocked with 200 μl/well of 1% BSA. Three-fold dilutions of humanized antibodies starting from 10 μg/ml were added to each well and incubated for 1 hour at 37° C. The plates were washed with PBS/Tween and then incubated with mouse-anti-human IgG Fab antibody conjugated with Horse Radish Peroxidase (HRP) for 1 hour at 37° C. After washing, the plates were developed with TMB substrate and analyzed by spectrophotometer at OD 450 nm.

human PD-L1-Fc protein [8] = target: T1, human PD-L1-Fc protein; assay: ELISA, antibody titrated on coated human PD-L1-Fc, OD 450nm; upper right panel (with Hu47C6A3-2)
Method: as §2

human PD-L1-Fc protein [9] = target: T1, human PD-L1-Fc protein; assay: ELISA, coated human PD-L1 (PD-L1-Fc per paragraph 110)
Method: as §1, with “1% BSA.” for “1% BSA at 37° C. for 2 hours.”, “with Mouse-anti-human IgG Fab antibody conjugated with Horse Radish Peroxidase (HRP)” for “with Streptavidin-HRP”, “for 30” for “for 10”
(§3) Briefly, microtiter plates were coated with human, mouse, rat and cynomolgus PD-L1 proteins at 0.5 μg/ml in PBS, 100 μl/well at 4° C. overnight, then blocked with 150 μl/well of 1% BSA. Three-fold dilutions of chimeric antibodies starting from 10 μg/ml were added to each well and incubated for 1 hour at 37° C. The plates were washed with PBS/Tween and then incubate with mouse-anti-human IgG Fab antibody conjugated with Horse Radish Peroxidase (HRP) for 30 mins at 37° C. After washing, the plates were developed with TMB substrate and analyzed by spectrophotometer at OD 450 nm.

human PD-L1-Fc protein [10] = target: T1, human PD-L1-Fc protein; assay: competition ELISA, coated human PD-L1-Fc, biotin-labeled human PD-1-Fc as competitor
Method: as §1, with “BSA.” for “BSA at 37° C. for 2 hours.”

human PD-L1-Fc protein [11] = target: T1, human PD-L1-Fc protein; assay: receptor blocking ELISA: coated human PD-L1-Fc, blocked ligand biotin-labeled human CD80-Fc (Bio-CD80), OD 450nm; upper right panel (with Hu47C6A3-2)
Method: as §1

[12] = target: T3, human PD-L1 over-expressed on CHOK1 …; assay: flow cytometry (MFI) on PDL1-CHOK1 cells; upper left panel (with Hu47C6A3-1 to -3)
Method: To evaluate the antigen binding property, the humanized antibodies were analyzed for their binding to PD-L1 overexpressed on mammalian cells by FACS. Briefly, PDL1-CHOK1 cells were firstly incubated with 3-fold serious diluted humanized antibodies starting at 15 μg/ml at 4° C. for 40 mins. After washed by PBS, the Alexa Fluor® 647 AffiniPure Goat Anti-Human IgG (H+L) antibody was added to each well and incubated at 4° C. for 30 mins. The MFI of Alexa Fluor® 647 was evaluated by FACSCanto.

mouse PD-L1 protein = mouse PD-L1 protein (mouse, UniProt Q9EP73 19-239); assay: ELISA, coated mouse PD-L1
Method: (§4) ELISA testing was carried out to evaluate the binding of chimeric antibodies to human, mouse, rat, and cynomolgus PD-L1, respectively.
as §3

human PD-L1-Fc protein [13] = target: T1, human PD-L1-Fc protein; assay: receptor blocking ELISA: coated human PD-L1-Fc, blocked ligand biotin-labeled human PD-1-Fc (Bio-PD1), OD 450nm; upper right panel (with Hu47C6A3-2)
Method: as §1

human PD-L1-Fc protein [14] = target: T1, human PD-L1-Fc protein; assay: receptor blocking ELISA: coated human PD-L1-Fc, blocked ligand biotin-labeled human PD-1-Fc (Bio-PD1), OD 450nm; lower left panel (with Hu47C6A3-3)
Method: as §1

[15] = target: T2, human PD-L1-his tag protein; assay: SPR (Biacore T200), mAb captured on Protein A chip, PD-L1-his injected; remark: listed apart in the source
Method: A serial dilution of human PD-L1-his tag protein was injected over captured antibody for 2 mins at a flow rate of 30 μl/min. The antigen was allowed to dissociate for 480-1500 s. All the experiment were carried out on a Biacore T200. Data analysis was carried out using Biacore T200 evaluation software.

human PD-L1-Fc protein [16] = target: T1, human PD-L1-Fc protein; assay: ELISA, antibody titrated on coated human PD-L1-Fc, OD 450nm; upper left panel (with Hu47C6A3-1)
Method: as §2

[17] = target: T3, human PD-L1 over-expressed on CHOK1 …; assay: flow cytometry on PDL1-CHOK1 cells
Method: After washing by PBS, Alexa Fluor® 647 AffiniPure Goat Anti-Human IgG (H+L) was added to each well and incubated at 4° C. for 30 mins. Samples were washed twice with FACS buffer. The mean florescence intensity (MFI) of Alexa Fluor® 647 was evaluated by FACSCanto.

human PD-L1-Fc protein [18] = target: T1, human PD-L1-Fc protein; assay: receptor blocking ELISA: coated human PD-L1-Fc, blocked ligand biotin-labeled human CD80-Fc (Bio-CD80), OD 450nm; upper left panel (with Hu47C6A3-1)
Method: as §1

rat PD-L1 protein = rat PD-L1 protein (rat, UniProt D4AE25 19-239); assay: ELISA, coated rat PD-L1
Method: as §4, §3

human PD-L1-Fc protein [19] = target: T1, human PD-L1-Fc protein; assay: receptor blocking ELISA: coated human PD-L1-Fc, blocked ligand biotin-labeled human CD80-Fc (Bio-CD80), OD 450nm; lower left panel (with Hu47C6A3-3)
Method: as §1

cynomolgus PD-L1 protein = cynomolgus PD-L1 protein (cynomolgus, UniProt G7PSE7 19-238); assay: ELISA, coated cynomolgus PD-L1
Method: as §4, §3

T1 sequence (Q9NZQ7 19-238 limits assumed): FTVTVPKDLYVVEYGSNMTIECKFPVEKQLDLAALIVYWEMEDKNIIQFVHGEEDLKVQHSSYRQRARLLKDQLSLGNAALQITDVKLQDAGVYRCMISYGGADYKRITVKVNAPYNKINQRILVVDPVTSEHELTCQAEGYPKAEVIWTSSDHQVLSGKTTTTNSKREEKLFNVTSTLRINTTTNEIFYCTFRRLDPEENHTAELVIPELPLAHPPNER
T2 sequence (Q9NZQ7 19-238 limits assumed): as above
T3 sequence (Q9NZQ7 19-290): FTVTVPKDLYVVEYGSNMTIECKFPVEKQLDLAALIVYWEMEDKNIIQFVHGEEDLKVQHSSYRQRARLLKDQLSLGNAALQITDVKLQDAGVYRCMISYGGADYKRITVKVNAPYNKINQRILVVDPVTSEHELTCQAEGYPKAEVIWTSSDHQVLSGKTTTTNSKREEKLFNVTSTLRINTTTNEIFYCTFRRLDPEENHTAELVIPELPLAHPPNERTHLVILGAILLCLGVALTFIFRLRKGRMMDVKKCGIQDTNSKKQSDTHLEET
Sequence of cynomolgus PD-L1 protein (G7PSE7 entry or part of it): as the sequence (Q9NZQ7 19-238 limits assumed) above, with A33T, A34S, S62N, R68Q, Q82R, F173L, T185A, T192I, H215L counted along it
Sequence of rat PD-L1 protein (D4AE25 entry or part of it limits assumed): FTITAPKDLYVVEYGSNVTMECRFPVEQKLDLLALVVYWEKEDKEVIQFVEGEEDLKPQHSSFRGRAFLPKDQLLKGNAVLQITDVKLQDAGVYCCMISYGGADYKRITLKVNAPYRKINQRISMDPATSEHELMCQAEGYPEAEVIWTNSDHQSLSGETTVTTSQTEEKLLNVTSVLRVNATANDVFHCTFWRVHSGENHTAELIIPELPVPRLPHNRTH
Sequence of mouse PD-L1 protein (Q9EP73 19-239 limits assumed): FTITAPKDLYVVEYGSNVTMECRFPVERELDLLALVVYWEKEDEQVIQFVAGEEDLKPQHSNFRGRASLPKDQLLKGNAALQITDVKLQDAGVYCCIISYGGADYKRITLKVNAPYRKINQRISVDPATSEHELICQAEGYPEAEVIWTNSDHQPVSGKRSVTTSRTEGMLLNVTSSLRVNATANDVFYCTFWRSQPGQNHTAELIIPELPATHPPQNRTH

B1: Hu67F3G7-5 (antibody, V domains shown)
VH: EVQLVQSGAEVKKPGASVKVSCKASGYIFTDFWVSWVRQAPGKGLEWIGEIYPNSGVSRYNEKFKGRVTMTVDKSISTAYMELSRLRSDDTAVYYCTKYFGYTYWFGYWGQGTLVTVSS
VL: DIQMTQSPSSLSASVGDRVTITCRASKSVSTYMHWYQQKPGKAPKLLIYSASHLESGVPSRFSGSGSGTDFTLTISSLQPEDFATYYCQQSNELPVTFGGGTKVEIK
notes: humanized
Binder B1 has an IC50 (human PD-L1-Fc protein [1]) of 0.127 µg/mL, a Kd [2] of 43.1 pM and a koff [2] of 7.92e-05 s⁻¹. The kon [2] was 1.84e+06 M⁻¹ s⁻¹, the EC50 [3] was 115 pM and the Kd [4] was 37 pM. It also gave a koff [4] of 9.71e-05 s⁻¹, a kon [4] of 2.62e+06 M⁻¹ s⁻¹ and an EC50 (human PD-L1-Fc protein [5]) of 0.0133 µg/mL. For the same binder, the IC50 (human PD-L1-Fc protein [6]) was 0.344 µg/mL.

B2: 47C6A3 chimeric mAb (antibody, V domains shown)
VH: DVQLQESGPGLVKPSQSLSLTCTVTGYSITSDYAWNWIRQFPGNKLEWMGYIIYSGSTSYNPSLKSRISITRDTSKNQFFLQLNSVTTEDTATYYCARSTMIATNWFAYWGQGTLVTVSA
VL: DIVMTQSHKFMSTSVVDRVSITCKASQDVSLAVAWYQQKPGQSPKLLIYWASTRHTGVPDRFTGSGSGTDFALTISSVQAEDLALYYCQQHYITPWTFGGGTKLEIK
notes: chimeric mAb of the hybridoma clone; also called 47C6A3-chimera
In the case of B2, the EC50 (human PD-L1-Fc protein [7]) is reported as 0.0176 µg/mL, the EC50 (human PD-L1-Fc protein [8]) is reported as 0.0124 µg/mL and the EC50 (human PD-L1-Fc protein [9]) is reported as 0.0102 µg/mL. It also gave an IC50 (human PD-L1-Fc protein [10]) of 0.0912 µg/mL, an IC50 (human PD-L1-Fc protein [11]) of 0.395 µg/mL and an EC50 [12] of 113 pM. The binding result (mouse PD-L1 protein) was “no binding (tested: dilutions starting from 10 µg/ml)”, the IC50 (human PD-L1-Fc protein [13]) was 0.0857 µg/mL and the IC50 (human PD-L1-Fc protein [14]) was 0.099 µg/mL. For the same binder, the Kd [15] was 366 pM, the koff [15] was 0.000678 s⁻¹ and the kon [15] was 1.85e+06 M⁻¹ s⁻¹. For the same binder, the EC50 (human PD-L1-Fc protein [16]) was 0.0115 µg/mL, the EC50 [17] was 148 pM and the IC50 (human PD-L1-Fc protein [18]) was 0.436 µg/mL. For the same binder, the binding result (rat PD-L1 protein) was “no binding (tested: dilutions starting from 10 µg/ml)”, the IC50 (human PD-L1-Fc protein [19]) was 0.439 µg/mL and the EC50 (cynomolgus PD-L1 protein) was 0.00634 µg/mL.
